Target: the molecule itself
Experiment: EPR spectroscopy (spin-spin interaction of singly labeled protein, with spin dilution); bound to preformed lipid tubules (10% cholesterol/40% phosphatidylcholine/40% galactocerebrosides/10% PIP2); 10 uM protein with 60 ug tubes in 100 ul, 10 min at RT, pelleted at 152,800g; 20 mM Hepes pH 7.4, 150 mM NaCl; fully labeled compared with 33% labeled and 67% unlabeled protein

B1: rat epsin 1 ENTH domain (1-164), spin-labeled at residue 14 (domain or fragment)
chain: GSPGIHMSTSSLRRQMKNICHNYSEAEIKVREATSNDPWGPSSSLMSEIADLTYNVVAFSEIMSMIWKRLNDHGKNWRHVYKAMTLMEYLIKTGSERVSQQSKENMYAVQTLKDFQYVDRDGKDQGVNVREKAKQLVALLRDEDRLREERAHALKTKEKLAQTATASSAA
modifications: MTSL spin label (R1 side chain) on the cysteine introduced at position 14
notes: cysteine-less background (C96S) with a single cysteine at position 14; same construct as the crystallography study (PDB 1H0A); also called V14; source: E. coli BL21 (DE3), purified (glutathione-Sepharose, thrombin, ion exchange, gel filtration), labeled with MTSL; not shown: GST, N-terminal, cleaved
B1: binds.

Reference: paper PMC3682188, “Membrane Binding and Self-Association of the Epsin N-Terminal Homology Domain” (Journal of Molecular Biology, 2012)
